Experiment [1] has as its target hemagglutinin of H1N1 clinical isolate 2013-INF-153 (genotype A/California/07/2009) (Influenza A virus H1N1, clinical …, UniProt C3W5X2, strain). Nature of the experiment: cell-based or functional assay.
Experiment [2] has as its target hemagglutinin of H1N1 clinical isolate A/Taiwan/80813/2013 (genotype A/California/07/2009) (Influenza A virus A/Taiwan/80813/2013 …, UniProt C3W5X2, strain). Nature of the experiment: cell-based or functional assay.
In experiment [3] the target is hemagglutinin of H1N1 clinical isolate 2014-INF-36 (genotype A/California/07/2009) (Influenza A virus H1N1, clinical …, UniProt C3W5X2, strain). The experiment in a line: cell-based or functional assay.
Experiment [4] addresses hemagglutinin of H1N1 clinical isolate 2013-INF-152 (genotype A/California/07/2009) (Influenza A virus H1N1, clinical …, UniProt C3W5X2, strain). The experiment in a line: cell-based or functional assay.
Experiment [5] addresses hemagglutinin of H1N1 clinical isolate 2014-INF-37 (genotype A/California/07/2009) (Influenza A virus H1N1, clinical …, UniProt C3W5X2, strain). The experiment in a line: cell-based or functional assay.
Experiment [6] deals with HA1 domain (residues 63-290) of hemagglutinin from A/California/07/2009 (H1N1) (Influenza A virus …, UniProt C3W5X2). The experiment in a line: SPR; […], single-cycle kinetics, 25 °C; […]; 10 mM HEPES pH 7.4, 150 mM NaCl. As to conditions: both partners purified. (In general: SPR reads the build-up and loss of mass on a sensor chip optically.)

As usually defined, the Kd is a measure of binding affinity in units of concentration. Low readings indicate tighter binding, high ones weaker binding. By koff is commonly meant the rate constant with which the complex falls apart. A higher koff goes with a short-lived complex. What is called kon is the second-order rate constant of association.

B1: 32D6 human monoclonal antibody (antibody, V domains shown)
VH: QVQLQESGPGLVKPSETLSLTCTVSGGSVNTGSYYWSWIRQPPGKGLEWIAYSSVSGTSNYNPSLKSRVTLTVDTSKNQFSLSVRSVTAADTAVYFCARLNYDILTGYYFFDFWGQGTLVIVSS
VL: QVELTQSPSASASLGTSVKLTCTLSSGHSTYAIAWHQQRPGKGPRYLMNLSSGGRHTRGDGIPDRFSGSSSGADRYLIISSLQSEDEADYYCQTWDAGMVFGGGTKLTVL
As to B1, the “Neutralization EC50 (infection of MDCK cells, high-content image system)” value was found to be 0.005 mg/L in experiment [1]; 0.036 mg/L in experiment [2]; 0.011 mg/L in experiment [3]; 0.014 mg/L in experiment [4]; 0.012 mg/L in experiment [5].

B2: 32D6-Fab (Fab, V domains shown)
VH: B1 VH
VL: B1 VL
notes: also called Fab of 32D6; His-tagged Fab of 32D6 (with the CH1 domain); source: Expi293F cells, purified (HisTrap excel column)
Regarding B2, in experiment [6], the Kd was determined as 0.353 nM, the koff turned out to be 9.12e-05 s⁻¹ and the kon amounted to 258000 M⁻¹ s⁻¹.

The record behind these values is publication PMC6418199 (Scientific Reports, 2019).
